Results as given in PMC12810918.

Experiments:
[1] = system: N=C(N)NCCC[C@H](N)C(=O)O; assay: purified protein; conditions: 40 mM Hepes pH 7.0, 0-20 mM arginine
[2] = substrate: N=C(N)NCCC[C@H](N)C(=O)O; assay: colorimetric determination of citrulline formation; assay type: biochemical, Giardia duodenalis; conditions: 40 mM Hepes pH 7.0, 0-20 mM arginine
Source text: colorimetric determination of citrulline formation on ADIB (recombinant ADI, assemblage B, isolate GS) | recombinantly expressed ADIAI, ADIAII and ADIB in bacteria and determined the Km values

In the case of “ADIE (recombinant ADI, assemblage E, isolate P15) (Giardia lamblia P15)”, the Km [1] is reported as 340 ± 30 µM.

B1: ADIB (recombinant ADI, assemblage B, isolate GS) (Giardia duodenalis ATCC 50581) (protein)
chain: MTDFTKDKEKLAQATQGGETERAEIVVVHLPQGTSFLTSLNPEGNLLEESMCPDELKRDHEGFQAILKEKGCRVYMPYDVLSEASPAEREVLMDQAMASLKYEFHPSGARITPKMKYCVSDEYKRKVLSALSNRNLVDVILSEPVIHLIPGVRNTALVTKSVEIHDSNNMVFMRDQQITTRRGVVMGQFQAPQRRREQVFALIFWKRLGVRVVGDCREGGPHCMLEGGDFIPASPGLTMMGVGLRSTYVGARYLMSKDLLGTRRFAVVKDCFDQHQDRMHLDCTCSIIHDKLVVLDEYICSGMGLRYVDEWIDIGAEAAKKAKSSAVICGTYALVKANVEFQQWLDENGYTIIRIPHEYQLAYGCNNLNLGNNCVLSVHQPTIDFIKASPAYISYCKSHNLSNGLDLVYVPFRGITRMYGSLHCASQVIYRTPATPATVKACEQEGDGLAAIYEKNGEPVDAAGKNFDCVLYIPSTVDDLVDSLGISLGDDVAPSREIIADVHKLYQKLISEGRVPYITWRMPSMPVVSLKGAARAGSLKAILDKIPQLPSFTPKVVDGAPAAYTRYLGLEQADICIDIS
With B1 the Km [2] was 360 ± 20 µM and the kcat [2] was 1.99 ± 0.16 s⁻¹.
